Measurements: the supplement of paper PMC10724198

Key:
Saccharomyces cerevisiae [1] = assay: protein stability index of tFT-peptide fusion in wild type (PSI (0-1 scale)); higher = more stable (slower turnover); conditions: genetic background: wild type
Saccharomyces cerevisiae [2] = assay: protein stability index of tFT-peptide fusion in deletion strain of DOA10 (PSI (0-1 scale)); higher = more stable (slower turnover)
Description: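 MPS profiling in S. cerevisiae of two library types built from selected 12-aa C-degron peptides (IN1, IN2, LN1, LN3, VN2, R1-R5, W1-W3, Atg1 and Rpa12 C-termini): saturation mutagenesis libraries and C-terminal +1 capping libraries (13 aa). Each peptide is fused to the C-terminus of a sfGFP-mCherry timer, after a GGGS linker. Cells are FACS-sorted into 8 mCherry/sfGFP bins and sequenced. PSI runs from 0 (unstable) to 1 (stable), measured once in wild type and in the das1Δ or doa10Δ background.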

Saccharomyces cerevisiae [3] = assay: protein stability index of tFT-peptide fusion in deletion strain of DAS1 (PSI (0-1 scale)); higher = more stable (slower turnover)
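Throughout, for protein stability index of tFT-peptide fusion in deletion strain of DAS1: PSI is a weighted mean of each variant's read distribution over the sorted stability bins, computed only for variants having over 10 reads in total.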
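Throughout, for protein stability index of tFT-peptide fusion in deletion strain of DOA10: PSI per variant is the weighted mean of its sequencing read distribution over the sorted stability bins, counting only variants with over 10 reads summed across bins.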
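Throughout, for protein stability index of tFT-peptide fusion in wild type: PSI derived as read-weighted mean over the 8 sorting bins, only variants exceeding 10 total reads kept, mCherry placed adjacent to the peptide and sfGFP distal.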

| Sequence | protein stability index (Saccharomyces cerevisiae [1]) | protein stability index (Saccharomyces cerevisiae [2]) | protein stability index (Saccharomyces cerevisiae [3]) |
| --- | --- | --- | --- |
| AITCPMCPLLLR | 0.297 | 0.643 | – |
| AITLCMCPLLLR | 0.487 | 0.665 | – |
| AITLDMCPLLLR | 0.346 | 0.68 | – |
| AITLMMCPLLLR | 0.302 | 0.612 | – |
| AITLPMCLLLLR | 0.116 | 0.629 | – |
| AITLPMCPLLLRA | 0.171 | 0.3 | – |
| AITLPMCPLLLRC | 0.0981 | 0.381 | – |
| AITLPMCPLLLRS | 0.261 | 0.554 | – |
| AITLPMCPLLLRT | 0.169 | 0.441 | – |
| AITLPMCPPLLR | 0.546 | 0.663 | – |
| AITLPMCRLLLR | 0.27 | 0.651 | – |
| AITLPMCSLLLR | 0.212 | 0.656 | – |
| AITLPMCTLLLR | 0.116 | 0.675 | – |
| AITLPMFPLLLR | 0.16 | 0.638 | – |
| AITLPMGPLLLR | 0.186 | 0.688 | – |
| AITLPMKPLLLR | 0.297 | 0.659 | – |
| AITLPVCPLLLR | 0.229 | 0.652 | – |
| AITLPWCPLLLR | 0.153 | 0.662 | – |
| AITLVMCPLLLR | 0.547 | 0.679 | – |
| AITMPMCPLLLR | 0.285 | 0.677 | – |
| AITTPMCPLLLR | 0.462 | 0.668 | – |
| AITWPMCPLLLR | 0.226 | 0.7 | – |

| Sequence | protein stability index (Saccharomyces cerevisiae [1]) | protein stability index (Saccharomyces cerevisiae [2]) | protein stability index (Saccharomyces cerevisiae [3]) |
| --- | --- | --- | --- |
| AMTLPMCPLLLR | 0.223 | 0.646 | – |
| APTLPMCPLLLR | 0.29 | 0.664 | – |
| ASTLPMCPLLLR | 0.408 | 0.668 | – |
| AVTLPMCPLLLR | 0.261 | 0.648 | – |
| CLDSLPILLFFR | 0.214 | 0.664 | – |
| CLNSLPILLFFR | 0.109 | 0.627 | – |
| CLVELPILLFFR | 0.0526 | 0.625 | – |
| CLVSLDILLFFR | 0.265 | 0.355 | – |
| CLVSLPFLLFFR | 0.0627 | 0.618 | – |
| CLVSLPIALFFR | 0.0824 | 0.631 | – |
| CLVSLPILDFFR | 0.638 | 0.678 | – |
| CLVSLPILLFFF | 0.304 | 0.42 | – |
| CLVSLPILLFFRA | 0.0659 | 0.475 | – |
| CLVSLPILLFFRF | 0.0553 | 0.483 | – |
| CLVSLPILLFFRL | 0.0549 | 0.512 | – |
| CLVSLPILLFFT | 0.248 | 0.528 | – |
| CLVSLPILLFPR | 0.628 | 0.654 | – |
| CLVSLPILLGFR | 0.391 | 0.653 | – |
| CLVSLPILNFFR | 0.637 | 0.66 | – |
| CLVSLWILLFFR | 0.149 | 0.365 | – |
| CLVSLYILLFFR | 0.174 | 0.347 | – |
| RLIQPLPVQFPN | 0.622 | – | 0.605 |

| Sequence | protein stability index (Saccharomyces cerevisiae [1]) | protein stability index (Saccharomyces cerevisiae [2]) | protein stability index (Saccharomyces cerevisiae [3]) |
| --- | --- | --- | --- |
| RLIQPLPVQMLN | 0.0702 | – | 0.606 |
| RLIQPLPVQTLN | 0.163 | – | 0.68 |
| RLIQPLPVQWLN | 0.0664 | – | 0.641 |
| RLIQPLPVYFLN | 0.0711 | – | 0.729 |
| RLMQPLPVQFLN | 0.1 | – | 0.572 |
| RLRQPLPVQFLN | 0.0588 | – | 0.593 |
| RLTQPLPVQFLN | 0.0562 | – | 0.857 |
| RSIQPLPVQFLN | 0.0915 | – | 0.643 |
| RSLAASFWRVVG | 0.117 | – | 0.689 |
| TKILRQKMNHQN | 0.148 | – | 0.67 |
| TVVYLSCVACIN | 0.0176 | – | 0.0307 |
| VDKRNHLIKLLN | 0.105 | – | 0.609 |
| VKGAVGGWRLVG | 0.149 | – | 0.691 |
| VQGAVGGWRLVG | 0.14 | – | 0.708 |
| VRAAVGGWRLVG | 0.14 | – | 0.681 |
| VREAVGGWRLVG | 0.143 | – | 0.676 |
| VRGAIGGWRLVG | 0.157 | – | 0.684 |
| VRGAVGCWRLVG | 0.162 | – | 0.69 |
| VRGAVGGDRLVG | 0.609 | – | 0.68 |
| VRGAVGGNRLVG | 0.681 | – | 0.67 |
| VRGAVGGPRLVG | 0.661 | – | 0.669 |
| VRGAVGGWHLVG | 0.286 | – | 0.671 |

| Sequence | protein stability index (Saccharomyces cerevisiae [1]) | protein stability index (Saccharomyces cerevisiae [2]) | protein stability index (Saccharomyces cerevisiae [3]) |
| --- | --- | --- | --- |
| VRGAVGGWRDVG | 0.606 | – | 0.629 |
| VRGAVGGWRKVG | 0.133 | – | 0.68 |
| VRGAVGGWRLKG | 0.607 | – | 0.673 |
| VRGAVGGWRLVF | 0.564 | – | 0.677 |
| VRGAVGGWRLVGK | 0.651 | – | 0.667 |
| VRGAVGGWRLVGP | 0.664 | – | 0.671 |
| VRGAVGGWRLVGV | 0.649 | – | 0.659 |
| VRGAVGGWRLVV | 0.16 | – | 0.675 |
| VRGAVGGWRMVG | 0.155 | – | 0.685 |
| VRGAVGGWRTVG | 0.157 | – | 0.674 |
| VRGAVGPWRLVG | 0.138 | – | 0.687 |
| VRGAVGRWRLVG | 0.159 | – | 0.669 |
| VRGAVGTWRLVG | 0.171 | – | 0.694 |
| VRGAVLGWRLVG | 0.146 | – | 0.677 |
| VRGAVWGWRLVG | 0.108 | – | 0.649 |
| VRGMVGGWRLVG | 0.161 | – | 0.683 |
| VRGTVGGWRLVG | 0.151 | – | 0.705 |
| VRVAVGGWRLVG | 0.111 | – | 0.652 |
| VWGAVGGWRLVG | 0.134 | – | 0.692 |
| WKHKKGQKQKIN | 0.135 | – | 0.546 |
| WSMRWTFRYWVN | 0.0469 | – | 0.48 |
